We go through two variants from IntAct's records for PubMed 20142502.

The labels stand for the following.
B1: pre-mRNA splicing regulator USH1G (Homo sapiens), Q495M9 (parent)
chain: MNDQYHRAARDGYLELLKEATRKELNAPDEDGMTPTLWAAYHGNLESLRLIVSRGGDPDKCDIWGNTPLHLAASNGHLHCLSFLVSFGANIWCLDNDYHTPLDMAAMKGHMECVRYLDSIAAKQSSLNPKLVGKLKDKAFREAERRIRECAKLQRRHHERMERRYRRELAERSDTLSFSSLTSSTLSRRLQHLALGSHLPYSQATLHGTARGKTKMQKKLERRKQGGEGTFKVSEDGRKSARSLSGLQLGSDVMFVRQGTYANPKEWGRAPLRDMFLSDEDSVSRATLAAEPAHSEVSTDSGHDSLFTRPGLGTMVFRRNYLSSGLHGLGREDGGLDGVGAPRGRLQSSPSLDDDSLGSANSLQDRSCGEELPWDELDLGLDEDLEPETSPLETFLASLHMEDFAALLRQEKIDLEALMLCSDLDLRSISVPLGPRKKILGAVRRRRQAMERPPALEDTEL
partner: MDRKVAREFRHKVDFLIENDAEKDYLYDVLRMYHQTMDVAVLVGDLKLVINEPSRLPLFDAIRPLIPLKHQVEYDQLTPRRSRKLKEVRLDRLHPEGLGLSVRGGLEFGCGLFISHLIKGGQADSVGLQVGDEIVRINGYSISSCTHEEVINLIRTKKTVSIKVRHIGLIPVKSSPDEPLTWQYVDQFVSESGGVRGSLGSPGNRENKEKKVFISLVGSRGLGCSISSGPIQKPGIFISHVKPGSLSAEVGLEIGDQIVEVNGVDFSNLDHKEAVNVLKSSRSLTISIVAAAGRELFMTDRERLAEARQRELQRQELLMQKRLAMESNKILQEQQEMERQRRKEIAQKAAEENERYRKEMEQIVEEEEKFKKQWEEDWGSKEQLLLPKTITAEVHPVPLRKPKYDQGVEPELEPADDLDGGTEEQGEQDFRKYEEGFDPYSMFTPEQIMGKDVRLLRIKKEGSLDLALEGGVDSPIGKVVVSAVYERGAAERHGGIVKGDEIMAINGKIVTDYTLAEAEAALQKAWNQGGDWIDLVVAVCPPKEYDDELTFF
B2: Harmonin (Homo sapiens), Q9Y6N9 (parent)
chain: B1 partner
partner: B1 chain

One assay covers variants of B1. The conditions noted are these: with ush1c_human USH1C, Q9Y6N9.
Consider MNDQYHRAARDGYLELLKEATRKELNAPDEDGMTPTLWAAYHGNLESLRLIVSRGGDPDKCDIWGNTPLHLAASNGHLHCLSFLVSFGANIWCLDNDYHTPLDMAAMKGHMECVRYLDSIAAKQSSLNPKLVGKLKDKAFREAERRIRECAKLQRRHHERMERRYRRELAERSDTLSFSSLTSSTLSRRLQHLALGSHLPYSQATLHGTARGKTKMQKKLERRKQGGEGTFKVSEDGRKSARSLSGLQLGSDVMFVRQGTYANPKEWGRAPLRDMFLSDEDSVSRATLAAEPAHSEVSTDSGHDSLFTRPGLGTMVFRRNYLSSGLHGLGREDGGLDGVGAPRGRLQSSPSLDDDSLGSANSLQDRSCGEELPWDELDLGLDEDLEPETSPLETFLASLHMEDFAALLRQEKIDLEALMLCSDLDLRSISVPLGPRKKILGAVRRRRQAMERPPALEVTEL [D458V], for which the “effect of a mutation on the interaction” value is recorded as “decreasing interaction”.

Variants of B2 are the subject of the next assay. The conditions noted are these: with ush1g_human USH1G, Q495M9.
Turning to MDRKVAREFRHKVDFLIENDAEKDYLYDVLRMYHQTMDVAVLVGDLKLVINEPSRLPLFDAIRPLIPLKHQVEYDQLTPRRSRKLKEVRLDRLHPEGLGLSVHGGLEFGCGLFISHLIKGGQADSVGLQVGDEIVRINGYSISSCTHEEVINLIRTKKTVSIKVRHIGLIPVKSSPDEPLTWQYVDQFVSESGGVRGSLGSPGNRENKEKKVFISLVGSRGLGCSISSGPIQKPGIFISHVKPGSLSAEVGLEIGDQIVEVNGVDFSNLDHKEAVNVLKSSRSLTISIVAAAGRELFMTDRERLAEARQRELQRQELLMQKRLAMESNKILQEQQEMERQRRKEIAQKAAEENERYRKEMEQIVEEEEKFKKQWEEDWGSKEQLLLPKTITAEVHPVPLRKPKYDQGVEPELEPADDLDGGTEEQGEQDFRKYEEGFDPYSMFTPEQIMGKDVRLLRIKKEGSLDLALEGGVDSPIGKVVVSAVYERGAAERHGGIVKGDEIMAINGKIVTDYTLAEAEAALQKAWNQGGDWIDLVVAVCPPKEYDDELTFF [R103H], the “effect of a mutation on the interaction” value is reported as “decreasing interaction”.
